“And” between values parts separate entries of the source, which are not always exact repeats. Identical values can stand only once.
B1: STEP61 Cys 65 to Ser (enzyme, UniProt P54830-1 1-541, looked up)
chain: MCCSERLLGLPQPVEMEAPDEAEGLPSKQKEMPPPPPPSPPSEPAQKLPPQGAGSHSLTVRSSLSLFAASQFLLACGVLWLSGHGHSWLQNTTDLISSSLTVLNHLGPVAWLGSGTWGIPSLLLVSLTVSLVIVTTLVWHLLKAPPEPPAPLPPEDRRQSVSRQPSFTYSEWMEEKVEDDFLDLDAVPETPVFDCVMDIKPETDPASLTVKSMGLQERRGSNVSLTLDMCTPGCNEEGFGYLVSPREESAHEYLLSASRVLRAEELHEKALDPFLLQAEFFEIPMNFVDPKEYDIPGLVRKNRYKTILPNPHSRVRLTSPDPEDPLSSYINANYIRGYSGEEKVYIATQGPIVSTVADFWRMVWQERTPIIVMITNIEEMNEKCTEYWPEEQVVHDGVEITVQKVIHTEDYRLRLISLRRGTEERSLKHYWFTSWPDQKTPDRAPPLLHLVREVEEAAQQEGPHCSPIIVHCSAGIGRTGCFIATSICCQQLRREGVVDILKTTCQLRQDRGGMIQTCEQYQFVHHAMSLYEKQLSLQSSE
B2: STEP61 Cys 76 to Ser (enzyme, UniProt P54830-1 1-541, looked up)
chain: MCCSERLLGLPQPVEMEAPDEAEGLPSKQKEMPPPPPPSPPSEPAQKLPPQGAGSHSLTVRSSLCLFAASQFLLASGVLWLSGHGHSWLQNTTDLISSSLTVLNHLGPVAWLGSGTWGIPSLLLVSLTVSLVIVTTLVWHLLKAPPEPPAPLPPEDRRQSVSRQPSFTYSEWMEEKVEDDFLDLDAVPETPVFDCVMDIKPETDPASLTVKSMGLQERRGSNVSLTLDMCTPGCNEEGFGYLVSPREESAHEYLLSASRVLRAEELHEKALDPFLLQAEFFEIPMNFVDPKEYDIPGLVRKNRYKTILPNPHSRVRLTSPDPEDPLSSYINANYIRGYSGEEKVYIATQGPIVSTVADFWRMVWQERTPIIVMITNIEEMNEKCTEYWPEEQVVHDGVEITVQKVIHTEDYRLRLISLRRGTEERSLKHYWFTSWPDQKTPDRAPPLLHLVREVEEAAQQEGPHCSPIIVHCSAGIGRTGCFIATSICCQQLRREGVVDILKTTCQLRQDRGGMIQTCEQYQFVHHAMSLYEKQLSLQSSE
B3: STEP61 C65S/C76S (enzyme, UniProt P54830-1 1-541, looked up)
chain: MCCSERLLGLPQPVEMEAPDEAEGLPSKQKEMPPPPPPSPPSEPAQKLPPQGAGSHSLTVRSSLSLFAASQFLLASGVLWLSGHGHSWLQNTTDLISSSLTVLNHLGPVAWLGSGTWGIPSLLLVSLTVSLVIVTTLVWHLLKAPPEPPAPLPPEDRRQSVSRQPSFTYSEWMEEKVEDDFLDLDAVPETPVFDCVMDIKPETDPASLTVKSMGLQERRGSNVSLTLDMCTPGCNEEGFGYLVSPREESAHEYLLSASRVLRAEELHEKALDPFLLQAEFFEIPMNFVDPKEYDIPGLVRKNRYKTILPNPHSRVRLTSPDPEDPLSSYINANYIRGYSGEEKVYIATQGPIVSTVADFWRMVWQERTPIIVMITNIEEMNEKCTEYWPEEQVVHDGVEITVQKVIHTEDYRLRLISLRRGTEERSLKHYWFTSWPDQKTPDRAPPLLHLVREVEEAAQQEGPHCSPIIVHCSAGIGRTGCFIATSICCQQLRREGVVDILKTTCQLRQDRGGMIQTCEQYQFVHHAMSLYEKQLSLQSSE
B4: STEP61 (STriatal Enriched Phosphatase, membrane associated isoform), wild type (enzyme, UniProt P54830-1 1-541, looked up)
chain: MCCSERLLGLPQPVEMEAPDEAEGLPSKQKEMPPPPPPSPPSEPAQKLPPQGAGSHSLTVRSSLCLFAASQFLLACGVLWLSGHGHSWLQNTTDLISSSLTVLNHLGPVAWLGSGTWGIPSLLLVSLTVSLVIVTTLVWHLLKAPPEPPAPLPPEDRRQSVSRQPSFTYSEWMEEKVEDDFLDLDAVPETPVFDCVMDIKPETDPASLTVKSMGLQERRGSNVSLTLDMCTPGCNEEGFGYLVSPREESAHEYLLSASRVLRAEELHEKALDPFLLQAEFFEIPMNFVDPKEYDIPGLVRKNRYKTILPNPHSRVRLTSPDPEDPLSSYINANYIRGYSGEEKVYIATQGPIVSTVADFWRMVWQERTPIIVMITNIEEMNEKCTEYWPEEQVVHDGVEITVQKVIHTEDYRLRLISLRRGTEERSLKHYWFTSWPDQKTPDRAPPLLHLVREVEEAAQQEGPHCSPIIVHCSAGIGRTGCFIATSICCQQLRREGVVDILKTTCQLRQDRGGMIQTCEQYQFVHHAMSLYEKQLSLQSSE

Columns and labels:
[1] = target: STEP46 (cytosolic isoform of STEP), wild type
[2] = target: the molecule itself; test: co-IP
[3] = target: the molecule itself; test: co-IP; remark: listed apart in the source

Molecule	phosphatase activity of STEP46 in the presence of H2O2, % of control [1]	co-immunoprecipitated STEP61-myc, % of WT control [2]	co-immunoprecipitated STEP61-myc, % of untreated WT control (10 mM H2O2, 5 min) [3]
STEP46 (cytosolic isoform of STEP), wild type (enzyme)	40.3 % of control	–	–
B1	–	38.4 % of control	–
B2	–	35.2 % of control	–
B3	–	13.5 % of control and 16.6 % of WT control	39.4 % of WT control
B4	–	–	232 % of WT control

Source: PMC3074231 (Journal of neurochemistry, 2011)
